Results taken from PMC5416870, “Lee Hyunah 1 2”.

Target: SOX (alkaline exonuclease) (Kaposi's sarcoma-associated herpesvirus …, UniProt P88925 1-486)
Assay: fluorescence polarization anisotropy; FPA with 3'FAM oligonucleotides, single site binding fit (GraphPad PRISM6); buffer, pH and temperature as in cited Bagneris et al., not in material
Settings: protein: recombinant

B1: K2-31 (structured_RNA)
RNA: GAUCUGAGCCAUUGAAGCAAGCUUCCAGAUC
- Kd (label: 3'FAM, hairpin): 49 µM

B2: dsUN51 (dsRNA)
RNA 1: GGCCAUCCUGUUUUUUUCCCUUUUUUUUUUUCUUUUUUUUUUUUUUUUUUU
RNA 2: AAAAAAAAAAAAAAAAAAAAAAGAAAAAAAAAAAGGGAAAAAAACUGGAUGGCC
- Kd (label: 3'FAM (strand 1), duplex, as printed has one U-U mismatch and second strand about 3 nt longer (5' overhang)): ~73 µM

B3: GFP51 (structured_RNA)
RNA: UACGGCAAGCUGACCCUGAAGUUCAUCUGCACCACCGGCAAGCUGCCCGUG
- Kd (label: 3'FAM, stem loop with UGAAG motif): 5 µM

B4: HBB58 (structured_RNA)
RNA: AGGUGAAGGCUCAUGGCAAGAAAGUGCUCGGUGCCUUUAGUGAUGGCCUGGCUCACCU
- Kd (label: 3'FAM, bulge): 42 µM
